Patent publication US20100146651, “MEGANUCLEASE VARIANTS CLEAVING A DNA TARGET SEQUENCE FROM THE HPRT GENE AND USES THEREOF” (CELLECTIS, published 2010)

Assays:
Assay in all cases: cell_activity; CHO chromosomal reporter, maximum
[1] = molecular target: T1, HprCH3.3/HprCH3.4 G19S heterodimer (synthetic, UniProt P05725;P05725 SEQ:1-163,SEQ:1-163, G19S in second chain)
T1 sequence 1: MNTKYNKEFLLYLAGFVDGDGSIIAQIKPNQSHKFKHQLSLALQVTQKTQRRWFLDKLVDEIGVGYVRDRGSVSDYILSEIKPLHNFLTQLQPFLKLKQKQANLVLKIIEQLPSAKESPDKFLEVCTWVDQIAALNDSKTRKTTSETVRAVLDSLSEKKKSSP
T1 sequence 2: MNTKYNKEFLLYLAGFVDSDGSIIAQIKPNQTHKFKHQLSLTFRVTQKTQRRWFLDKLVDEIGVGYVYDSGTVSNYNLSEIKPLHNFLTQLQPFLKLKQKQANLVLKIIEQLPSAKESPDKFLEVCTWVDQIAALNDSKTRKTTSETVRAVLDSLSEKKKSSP
From the text: (§1) To evaluate the cleavage activity of the original and G19S derived mutants a chromosomal reporter system in CHO cells was used (FIG. 20). In this system a single-copy LacZ gene driven by the CMV promoter is interrupted by the HprCH3 site and is thus non-functional. The transfection of the cell line with CHO expression plasmids for HprCH3.3/HprCH3.4 and a LacZ repair plasmid allows the restoration of a functional LacZ gene by homologous recombination. It has previously been shown that double-strand breaks can induce homologous recombination; therefore the frequency with which the LacZ gene is repaired is indicative of the cleavage efficiency of the genomic HprCH3 target site.
(§2) CHO cell lines harbouring the reporter system were seeded at a density of 2×10⁵ cells per 10 cm dish in complete medium (Kaighn's modified F-12 medium (F12-K), supplemented with 2 mM L-glutamine, penicillin (100 UI/ml), streptomycin (100 μg/ml), amphotericin B (Fongizone) (0.25 μg/ml) (INVITROGEN-LIFE SCIENCE) and 10% FBS (SIGMA-ALDRICH CHIMIE). The next day, cells were transfected with Polyfect transfection reagent (QIAGEN). Briefly, 2 μg of lacz repair matrix vector was co-transfected with various amounts of meganucleases expression vectors. After 72 hours of incubation at 37° C., cells were fixed in 0.5% glutaraldehyde at 4° C. for 10 min, washed twice in 100 mM phosphate buffer with 0.02% NP40 and stained with the following staining buffer (10 mM Phosphate buffer, 1 mM MgCl₂, 33 mM K hexacyanoferrate (III), 33 mM K hexacyanoferrate (II), 0.1% (v/v) X-Gal). After, an overnight incubation at 37° C., plates were examined under a light microscope and the number of LacZ positive cell clones counted. The frequency of LacZ repair is expressed as the number of LacZ+ foci divided by the number of transfected cells (5×10⁵) and corrected by the transfection efficiency.

[2] = molecular target: T2, HprCH3.3 G19S/HprCH3.4 heterodimer (synthetic, UniProt P05725;P05725 SEQ:1-163,SEQ:1-163, G19S in first chain)
T2 sequence 1: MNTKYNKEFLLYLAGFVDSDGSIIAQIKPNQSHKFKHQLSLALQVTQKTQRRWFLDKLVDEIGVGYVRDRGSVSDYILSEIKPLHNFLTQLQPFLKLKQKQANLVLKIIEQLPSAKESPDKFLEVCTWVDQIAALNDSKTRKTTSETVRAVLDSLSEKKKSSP
T2 sequence 2: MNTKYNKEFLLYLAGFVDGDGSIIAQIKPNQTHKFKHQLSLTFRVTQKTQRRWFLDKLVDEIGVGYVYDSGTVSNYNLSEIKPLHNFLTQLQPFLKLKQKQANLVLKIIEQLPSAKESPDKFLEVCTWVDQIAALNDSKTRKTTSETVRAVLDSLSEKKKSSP
From the text: as §1, §2

[3] = molecular target: T3, HprCH3.3/HprCH3.4 heterodimer (KNSHQS/QRRDI/42A43L + KNTHQS/RYSNN/72T) (synthetic, UniProt P05725;P05725 SEQ:1-163,SEQ:1-163)
T3 chain 1: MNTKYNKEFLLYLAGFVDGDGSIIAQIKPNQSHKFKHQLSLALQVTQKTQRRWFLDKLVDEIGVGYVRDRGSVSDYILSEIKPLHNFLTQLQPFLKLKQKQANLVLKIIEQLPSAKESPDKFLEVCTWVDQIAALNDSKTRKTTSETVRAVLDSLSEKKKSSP
T3 chain 2: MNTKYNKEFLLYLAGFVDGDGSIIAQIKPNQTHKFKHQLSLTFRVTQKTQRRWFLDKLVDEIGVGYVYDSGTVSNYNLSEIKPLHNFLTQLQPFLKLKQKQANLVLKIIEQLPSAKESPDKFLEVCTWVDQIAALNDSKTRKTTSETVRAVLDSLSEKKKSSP
From the text: as §1, §2

B1: HprCH3 (dsDNA)
DNA 1: CGAGATGTCATGAAAGAGATGG
DNA 2: CCATCTCTTTCATGACATCTCG
activity [1]: 0.012 LacZ repair frequency
activity [2]: 0.0115 LacZ repair frequency
activity [3]: 0.002 LacZ repair frequency
